Results on 2 molecules are retold here after doi:10.1101/2024.09.04.610228 (bioRxiv, 2024).

Ends that are not written are not given here.

The experiment deals with FOXO4 forkhead domain (FHD) (95-195) (UniProt P98177 95-195). Description: fluorescence polarisation. A general note: In fluorescence polarisation assays a small probe gives low polarisation when free and higher when bound to something large.
Chain of FOXO4 forkhead domain (FHD) (95-195) (P98177 95-195): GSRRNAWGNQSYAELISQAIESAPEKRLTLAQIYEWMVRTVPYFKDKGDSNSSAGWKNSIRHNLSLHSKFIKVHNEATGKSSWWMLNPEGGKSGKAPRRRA

B1: CAND (peptide)
peptide: ALMLSPAAIAQWFTAA
Take B1: the “fold enhancement of inhibitory ability against p53 TAD PEP” value is around 3 fold.

B2: FITC-labeled p53 TAD PEP (42-57) (peptide)
peptide: DLMLSPDDIEQWFTED
modifications: also: FITC label, position not given here
For B2, the Kd (as a rule, a measure of binding affinity in units of concentration) came to 110 nM.
